{"source": "patent US20250042994A1", "about": "(HAINAN SIMCERE ZAIMING PHARMACEUTICAL, published 2025)", "binders": {"B1": {"name": "F3.5.1 (antibody, human IgG1, V domains shown)", "VH": "QAQLQQSGPELVKPGASVKISCKASGYAFSGSWMNWVQQRPGKGLEWIGRIYPGDGDTYYNGKFKDKAILTADKSSSTAYMQLSSLTSEDSAVYFCAQLRYRYVMDYWGQGTSVTVSS", "VL": "DIVLTQSPASLAVSLGQRATISCRASESVSIHGSHLMHWYQQKPGQPPRLLIYAASNLESGVPARFSGSGSETDFTLNIHPVEEEDAATYFCQQGIKDPYTFGGGTKLEIK", "notes": "human-murine chimeric antibody, human IgG1"}, "B2": {"name": "F3.40.14 (antibody, human IgG1, V domains shown)", "VH": "B1 VH with N61S, K74T, Y101S, T112A", "VL": "B1 VL with S34T, K97D", "notes": "as for B1"}, "B3": {"name": "F6.12.12 (antibody, human IgG1, V domains shown)", "VH": "DVQLQESGPGLVKPSQSLSLTCSVTGYSITSGYYWIWIRQFPGNKLEWMGYISYDASNKYKPSLKNRISITRDTSKNQFFLKLNSVTAEDTATYFCAREDLRGYFDVWGTGTSVTVSS", "VL": "DIVLTQSPASLAVSLGRRATISCRASQSVSTSGFSYMHWYQQKPGQPPNLLIKYASILQSGVPARFSGSGSGTDFILNIHPVEDVDTATYYCQHSWGIPFTFGSGTKLEIK", "notes": "as for B1"}, "B4": {"name": "F3.13.2 (antibody, human IgG1, V domains shown)", "VH": "DVQLQESGPGLMKPSQSLSLTCSVTGYSITSGYYWNWIRQFPGNKLEWMGYISYDGSNNYNPSLKNRFSITRDTSKNQFFLKLNSVTTEDTATYYCARRKLTGGPYFDYWGQGTTLTVSS", "VL": "DIVLTQSPASLAVTLGQRATISCRASESVSFHGFHIMHWYQQKPGQPPKLLIYAASHLVSGVPDRFSGSGSETDFTLNIHPVEEEDAAAYFCQQSVEDPWTFGGGTKLEIK", "notes": "as for B1"}, "B5": {"name": "F3.3.10 (antibody, human IgG1, V domains shown)", "VH": "DVQLQESGPGLAKLSQSLSLTCSVTGYSITSGYYWNWIRQFPGNKLEWMGHISYDGNNNYNPSLKNRISITRDTSKNQFFLKLNSVTTEDTATYYCARENYSNYYFDYWGQGTTLTVSS", "VL": "DIVLTQSPASLAVSLGQRATISCRASQSVSKSSYTYIHWYQQKPGQPPKLLIKYASILQSGVPARFSGSGSGTDFTLNFHPVEEEDTATYYCQHSWEIPYTFGGGTKLEIK", "notes": "as for B1"}, "B6": {"name": "F3.81.2 (antibody, human IgG1, V domains shown)", "VH": "QVQLQQPGAELVMPGASVKLSCKASAYTFTNYWMHWVKQRPGHGLEWIGEIDPSDSYTDYNQNFKAKATLTVDKSSSTAYMQLSSLTSEDSAVYYCARLMGRYFDVWGTGTTVTVSS", "VL": "DIVMTQSHKFMSTSVGDRVSITCKASQDVSAAVAWYQQKPGQSPKLLINSASYRYTGVPDRFTGSGSGTDFTFTISSVQAEDLAVYYCQQHYSTPLTFGAGTKLELR", "notes": "as for B1"}}, "note": "Numbering of substitutions follows the chain as printed.", "data": [{"biological_target": "T1, Human CD19-his protein (human, UniProt P15391 20-291)", "T1 construct": "bought protein; also called human CD19 protein; recombinant human CD19-His; not shown: His tag", "T1 sequence (looked up)": "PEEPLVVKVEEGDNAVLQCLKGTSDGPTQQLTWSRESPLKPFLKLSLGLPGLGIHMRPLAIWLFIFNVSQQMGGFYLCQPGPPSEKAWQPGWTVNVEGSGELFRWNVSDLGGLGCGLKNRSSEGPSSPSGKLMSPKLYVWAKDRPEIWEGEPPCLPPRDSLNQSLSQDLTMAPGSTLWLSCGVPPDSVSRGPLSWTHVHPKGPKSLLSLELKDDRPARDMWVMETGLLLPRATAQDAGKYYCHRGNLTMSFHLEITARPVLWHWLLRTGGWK", "experiment": "ELISA, antibody at 0.01 nM", "protocol": "(§1) Human CD19-his protein (purchased from ACROBiosystems, catalog number: CD9-H52H2) was diluted with PBS to a final concentration of 4 μg/mL, and then added to a 96-well ELISA plate at 100 μl/well. The plate was sealed with a plastic film and incubated overnight at 4° C., the plate was washed 2 times with PBS the next day, and then a blocking solution [PBS+2% (w/w) BSA] was added for blocking at room temperature for 2 h. The blocking solution was poured off, and 100 nM gradiently diluted CD19 chimeric antibody or control antibody was added at 50 μl/well. After incubation at 37° C. for 2 h, the plate was washed 3 times with PBS. […] TMB substrate was added at 50 μl/well, and incubated at room temperature for 10 min, and then a stop solution (1.0 N HCl) was added at 50 μl/well. The OD450 nm values were read by an ELISA microplate reader (Multimode Plate Reader, EnSight, purchased from Perkin Elmer).", "values": [{"binder": "B1", "OD450": 0.11}, {"binder": "B2", "OD450": 0.06}, {"binder": "B3", "OD450": 0.1}, {"binder": "B4", "OD450": 0.05}, {"binder": "B5", "OD450": 0.05}, {"binder": "B6", "OD450": 0.07}]}, {"biological_target": "T2, human CD19 exon1-3-his protein (human, UniProt P15391 20-186, limits assumed)", "T2 construct": "made in HEK293E cells; also called membrane-distal end; not shown: His tag", "T2 sequence (looked up)": "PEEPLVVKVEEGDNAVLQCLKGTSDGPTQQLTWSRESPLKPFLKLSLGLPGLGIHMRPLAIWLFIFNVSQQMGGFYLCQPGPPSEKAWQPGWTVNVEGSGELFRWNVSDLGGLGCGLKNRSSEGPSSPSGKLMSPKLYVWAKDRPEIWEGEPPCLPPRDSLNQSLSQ", "experiment": "ELISA, coated at 2 ug/mL", "protocol": "as §1\nCD19 protein contains 4 exons in the extracellular region, in which exons 1-3 are located at the membrane-distal end and exon 4 is located at the membrane-proximal end. […] To identify the distribution of antigen binding epitopes of the chimeric antibodies, human CD19 exon 1-3-His (membrane-distal end) was used to coat at 2 μg/mL according to the ELISA method in example 5.1.", "values": [{"binder": "B1", "binding result": "no binding"}, {"binder": "B2", "binding result": "no binding"}, {"binder": "B3", "binding result": "no binding"}, {"binder": "B4", "binding result": "no binding"}, {"binder": "B5", "binding result": "no binding"}, {"binder": "B6", "binding result": "no binding"}]}, {"biological_target": "T1, Human CD19-his protein", "experiment": "ELISA, antibody at 0.001 nM", "protocol": "as §1", "values": [{"binder": "B1", "OD450": 0.06}, {"binder": "B2", "OD450": 0.05}, {"binder": "B3", "OD450": 0.06}, {"binder": "B4", "OD450": 0.05}, {"binder": "B5", "OD450": 0.05}, {"binder": "B6", "OD450": 0.05}]}, {"biological_target": "T1, Human CD19-his protein", "experiment": "ELISA, antibody at 0.10 nM", "protocol": "as §1", "values": [{"binder": "B1", "OD450": 0.5}, {"binder": "B2", "OD450": 0.11}, {"binder": "B3", "OD450": 0.39}, {"binder": "B4", "OD450": 0.06}, {"binder": "B5", "OD450": 0.08}, {"binder": "B6", "OD450": 0.24}]}, {"biological_target": "T1, Human CD19-his protein", "experiment": "ELISA, antibody at 100 nM", "protocol": "as §1", "values": [{"binder": "B1", "OD450": 2.01}, {"binder": "B2", "OD450": 1.19}, {"binder": "B3", "OD450": 1.32}, {"binder": "B4", "OD450": 0.45}, {"binder": "B5", "OD450": 0.59}, {"binder": "B6", "OD450": 1.4}]}, {"biological_target": "T1, Human CD19-his protein", "experiment": "ELISA, antibody at 10 nM", "protocol": "as §1", "values": [{"binder": "B1", "OD450": 1.75}, {"binder": "B2", "OD450": 1.01}, {"binder": "B3", "OD450": 1.08}, {"binder": "B4", "OD450": 0.29}, {"binder": "B5", "OD450": 0.42}, {"binder": "B6", "OD450": 1.05}]}, {"biological_target": "T1, Human CD19-his protein", "experiment": "ELISA, antibody at 1.00 nM", "protocol": "as §1", "values": [{"binder": "B1", "OD450": 1.38}, {"binder": "B2", "OD450": 0.42}, {"binder": "B3", "OD450": 0.71}, {"binder": "B4", "OD450": 0.18}, {"binder": "B5", "OD450": 0.21}, {"binder": "B6", "OD450": 0.74}]}, {"biological_target": "T3, murine CD19 protein (murine, UniProt P25918 17-287, limits assumed)", "T3 construct": "bought protein; also called commercial murine CD19", "T3 sequence (looked up)": "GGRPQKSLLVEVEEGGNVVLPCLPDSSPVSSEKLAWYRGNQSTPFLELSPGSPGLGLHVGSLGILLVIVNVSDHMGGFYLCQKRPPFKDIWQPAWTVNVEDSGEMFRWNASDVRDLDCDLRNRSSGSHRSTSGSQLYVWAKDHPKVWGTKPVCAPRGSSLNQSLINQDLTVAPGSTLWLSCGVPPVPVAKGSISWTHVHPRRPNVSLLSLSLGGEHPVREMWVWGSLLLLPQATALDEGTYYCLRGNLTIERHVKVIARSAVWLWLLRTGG", "experiment": "ELISA, coated murine CD19", "protocol": "as §1\nIn order to detect the species cross-binding activity of the chimeric antibodies, an ELISA plate was coated with commercial murine CD19 (ACROBiosystems, catalog number: 50510-M08H) and monkey CD19 (ACROBiosystems, catalog number: 90051-C08H), respectively, and the ELISA detection was performed according to the method in example 5.1.", "values": [{"binder": "B1", "binding result": "no binding"}, {"binder": "B2", "binding result": "no binding"}, {"binder": "B3", "binding result": "no binding"}, {"binder": "B4", "binding result": "no binding"}, {"binder": "B5", "binding result": "no binding"}, {"binder": "B6", "binding result": "no binding"}]}, {"biological_target": "T1, Human CD19-his protein", "experiment": "ELISA, antibody at 0.0001 nM", "protocol": "as §1", "values": [{"binder": "B1", "OD450": 0.05}, {"binder": "B2", "OD450": 0.05}, {"binder": "B3", "OD450": 0.05}, {"binder": "B4", "OD450": 0.05}, {"binder": "B5", "OD450": 0.05}, {"binder": "B6", "OD450": 0.05}]}]}
